Data: patent publication US20220380471A1

Columns and labels:
mouse B7H3-His (mouse) [1] = molecular target: T1, mouse B7H3-His (mouse) (UniProt Q8VE98); assay: phage ELISA, cross-species
T1 sequence (looked up): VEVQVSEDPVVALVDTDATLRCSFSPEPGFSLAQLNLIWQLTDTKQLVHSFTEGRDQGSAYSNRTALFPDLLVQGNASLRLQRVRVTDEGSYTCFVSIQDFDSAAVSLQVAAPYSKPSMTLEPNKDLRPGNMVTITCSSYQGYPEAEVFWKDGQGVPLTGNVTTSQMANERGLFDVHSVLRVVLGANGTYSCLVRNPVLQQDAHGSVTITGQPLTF

mouse B7H3-His (mouse) [2] = molecular target: T1, mouse B7H3-His (mouse); assay: ELISA; row Mouse-2 (mB7H3); well 3 of 3
mouse B7H3-His (mouse) [3] = molecular target: T1, mouse B7H3-His (mouse); assay: ELISA; row Mouse-1 (msB7H3); well 1 of 3
mouse B7H3-His (mouse) [4] = molecular target: T1, mouse B7H3-His (mouse); assay: ELISA; row Mouse-2 (mB7H3); well 2 of 3
mouse B7H3-His (mouse) [5] = molecular target: T1, mouse B7H3-His (mouse); assay: ELISA; row Mouse-2 (mB7H3); well 1 of 3
mouse B7H3-His (mouse) [6] = molecular target: T1, mouse B7H3-His (mouse); assay: ELISA; row Mouse-1 (msB7H3); well 2 of 3
mouse B7H3-His (mouse) [7] = molecular target: T1, mouse B7H3-His (mouse); assay: ELISA; row Mouse-1 (msB7H3); well 3 of 3
rat B7H3-His (rat) [8] = molecular target: T2, rat B7H3-His (rat) (UniProt Q7TPB4); assay: ELISA; row Rat; well 3 of 3
T2 sequence (looked up): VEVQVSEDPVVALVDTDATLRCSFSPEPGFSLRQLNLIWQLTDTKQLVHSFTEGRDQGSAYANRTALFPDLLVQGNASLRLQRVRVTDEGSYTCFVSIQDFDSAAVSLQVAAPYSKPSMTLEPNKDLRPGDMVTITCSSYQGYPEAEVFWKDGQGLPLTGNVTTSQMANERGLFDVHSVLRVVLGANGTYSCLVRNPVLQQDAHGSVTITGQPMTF

rat B7H3-His (rat) [9] = molecular target: T2, rat B7H3-His (rat); assay: phage ELISA, cross-species
rat B7H3-His (rat) [10] = molecular target: T2, rat B7H3-His (rat); assay: ELISA; row Rat; well 2 of 3
rat B7H3-His (rat) [11] = molecular target: T2, rat B7H3-His (rat); assay: ELISA, purified VHH
rat B7H3-His (rat) [12] = molecular target: T2, rat B7H3-His (rat); assay: ELISA; row Rat; well 1 of 3

B1: RWB12 (VHH)
VHH: QVQLVESGGGSVQVGGSLRLSCAASGFTYNSYSVGWFRQAPGKEREGVAAINSGGSSTYYAASVKGRFTISRDNAKNTVYLQMNSLKPEDTAMYYCAARSPSPLTFQTRTLREDSYNYWGQGTQVTVSS
Q: What does the source list for B1?
A: ELISA signal (mouse B7H3-His (mouse) [1]): 1.71; ELISA reading (name not given) (mouse B7H3-His (mouse) [2]): 0.0764; ELISA reading (name not given) (mouse B7H3-His (mouse) [3]): 0.0714; ELISA reading (name not given) (mouse B7H3-His (mouse) [4]): 0.0771; ELISA reading (name not given) (mouse B7H3-His (mouse) [5]): 0.0742; ELISA reading (name not given) (mouse B7H3-His (mouse) [6]): 0.0683; ELISA reading (name not given) (mouse B7H3-His (mouse) [7]): 0.0702

B2: RWC4 (VHH)
VHH: EVQLVESGGGSVQAGGSLRLSCVASEDSTSAMCMGWFRQAPGKEREGVACINPTGEVTWYGDSVKGRFTISRDTVKKIVYLQMNSLKPEDTAMYYCAARVTYGGDWSTDTDYEYWGQGTQVTVSS
Q: What does the source list for B2?
A: ELISA reading (name not given) (rat B7H3-His (rat) [8]): 0.0685; ELISA signal (rat B7H3-His (rat) [9]): 0.797; ELISA signal (mouse B7H3-His (mouse) [1]): 0.366; ELISA reading (name not given) (mouse B7H3-His (mouse) [2]): 0.0468; ELISA reading (name not given) (rat B7H3-His (rat) [10]): 0.0688; ELISA reading (name not given) (mouse B7H3-His (mouse) [3]): 0.0616; ELISA reading (name not given) (mouse B7H3-His (mouse) [4]): 0.0498; ELISA reading (name not given) (mouse B7H3-His (mouse) [5]): 0.079; ELISA reading (name not given) (mouse B7H3-His (mouse) [6]): 0.0533; ELISA reading (name not given) (mouse B7H3-His (mouse) [7]): 0.0488; ELISA signal (rat B7H3-His (rat) [11]): 0.158; ELISA reading (name not given) (rat B7H3-His (rat) [12]): 0.0683
